In patent US20240218057A1 (ROCKEFELLER UNIVERSITY, published 2024):

Each binder was assayed against T1, SARS-CoV-2 receptor-binding domain (WT RBD; S protein residues 319-539) (SARS-CoV-2, UniProt P0DTC2 319-539) (assay: BLI (Octet Red), IgG on protein A biosensor, WT RBD in solution, 1:1 fit).
T1 construct: also called SARS-COV-2 RBD

Binder | Kd [nM]
C908 (antibody, V domains shown) VH: EVQLVQSGAEVKKPGESLKISCKASGYSFTIYWIGWVRQMPGKGLEWMGIIYPGESETRYSPSFQGQVTISADKSISTAYLQWRSLKASDTAMYYCARGGPPGGVKLELTDYWGQGTLVTVSS VL: not shown | 0.0026
C960 (antibody, V domains shown) VH: QVQLVESGGGVVQPGRSLTLSCTASGFTFNRFAMFWVRQAPGKGLEWVAVISFDGSYEHYAESVKGRFAIFRDNPKNTLYLQMNSLRAEDTAVYYCAKSPINYCANGVCYPDSWGQGTLVTVSS VL: NFMLTQPHSVSESPGKTVTISCTGSSGSIANNYVQWYQQRPGSAPTTVIFEDTQRPSGVPDRFSGSIDSSSNSASLNISGLKPEDEADYYCQSFDVNSRWVFGGGTKLTVL | 6.67

What follows are binders tested against SARS-COV-2 RBD (SARS-COV-2, UniProt P0DTC2 319-539) (assay: ELISA, RBD coated on plate).

Binder | EC50 [ng/mL]
C101 (antibody, V domains shown) VH: QVQLVESGGGLIQPGGSLRLSCAASGFIVSSNYMSWVRQAPGKGLEWVSVIYSGGSTFYTDSVKGRFTISRDNSKNTLYLQMNSLRAEDTAVYYCVRDYGDFYFDYWGQGTLVTVSS VL: EIVLTQSPGTLSLSPGERATLSCRASQSVSSSYLAWYQQKPGQAPRLLIYGASSRATGIPDRFSGGGSETDFTLTISRLEPEDCAVYYCQQYGSSPRTFGQGTKVEIK | 1.51

These binders were tested against T2, SARS-CoV-2 receptor-binding domain (RBD), S protein residues 319-539 (SARS-CoV-2, UniProt P0DTC2 319-539) (assay: ELISA on coated RBD).
T2 construct: also called WT RBD; SARS-COV-2 RBD

Binder | EC50 [ng/mL]
C890 (antibody, V domains shown) VH: QVQLVQSGAEVKKPGSSVKASCKASGGTFSTYTISWVRQAPGHGLEWMGRIIPIFGTTKYAQKFQGRVTITADESTTTAYLELSSLRSEDTAVYYCTINTQWDLVPRWGQGTLVTVSS VL: not shown | 2.2
C887 (antibody, V domains shown) VH: EVQLVESGGDLVQPGGSLRLSCAASGFTFTTYSMSWVRQAPGKGLEWISYINSGSANIHYADSVKGRFTVSRDNAKNSLYLQMNSLRDEDTAVYYCARGDCLSSSCYSLDYWGQGALVTVSS VL: DIQMTQSPSSLSASVGDRVTITCRASQSITSYLSWYLQKPGEAPKLLIYAASILQSGVPSRFGGNGSGTDFTLTISSLQPEDFATFYCQQTYRSPLTFGGGTKVEIK | 2.53
C970 (antibody, V domains shown) VH: QVQLQESGPGLVKPSETLSLTCTVSGDSINKYYWGWIRQPPGKGLEWIGYIYYSGTTNYNPSLKSRVTISVDTSKTQFSLKLSSVTAADTAVYYCARLLSTEWSFNWFDPWGQGTLVTVSS VL: SYELTQPPSVSVSPGQTASITCSGDTLGDKYACWYQQKPGQSPLLVIYQNNKRPSGIPERFSGSNSGNTATLTISGTQAMDEADYYCQAWDSSTAYVFGTGTKVTVL | 3.71
C892 (antibody, V domains shown) VH: EVQLVESGGGLVKPGGSLKVSCTASGFTFTDAWMSWVRQAPGKGLEWVGRIKSRAYGGTTDYGAPVQGRFTISRDDSINTLYLQMNSLTAEDTAVYYCTSQLWLRGPGDYWGQGTLVTVSS VL: NFMLTQPHSVSESPGKTVTISCTGSSGSIASNYVHWYQQRPGGAPTTVIYEDNQRPSGVPDRFSGSIDISSNSASLTISGLKTEDEGDYYCQSYDSGVNWVFGGGTKLTVL | 2.9
C844 (antibody, V domains shown) VH: EVQLVESGGGLVKPGGSLRLSCVATGFSFSDAWMNWVRQAPGKGLEWVGRIRSEIADGTTDYAAPVKGRFTISRDDARNTLYLQMNSLEIEDTAVYYCTTGVVVVVSSSPDDAFDVWGQGTMVTVSS VL: DIQMTQSPSSLSASVGDRVTITCRASQSIGHYLNWYQQKPGKAPKLLIYAASSLQSGVPSRFSGSGSGAGFTLTVNGLQPEDLATYYCQQYYTTPPTFGQGTKVEIK | 1.28
C889 (antibody, V domains shown) VH: EVQLVESGGGLVQPGGSLRLSCAVSGFTVSSNYMTWVRQAPGKGLEWVSLIYSGTSAFYADSVKGRFTISRDNSKNTLYLQMSSLRVNDTAIYYCARDLRKDDGYSYGAFDYWGQGTLVTVSS VL: QSALTQPASVSGSPGQSITISCSGTSSDVGAHNYVSWYQQYPGKAPKLMIFDVTDRPSGVSNRFSGSKSGNTASLTISGLQAEDEADYYCTSYTTNRSWVFGGGTKVTVL | 4.25
C980 (antibody, V domains shown) VH: QVQLVQSGAEVKKPGSSVKVSCEASGGTFSSDSINWVRQAPGQGLEWMGRIIPIFGATNYAQKFQGRVTITADKSTDTVYMEVSSLTSEDTAVYYCARGGIAVGGWWFDPWGQGTLVTVSS VL: EIVMTQSPATLSVSPGERATLSCRASESVSSKLAWYQQKPGQAPRLLIYGASTRATGISARFSGSGSGTDFTLTISSLESEDFAVYYCQQYNHWPPNTFGQGTKLEIK | 4.07
C845 (antibody, V domains shown) VH: QVQLQESGPGLVKPSQTLSLTCTVSGASISSGEYYWSWVRQPPGKGLEWVGYIYYSGSTYYNPSLKSRVTISVDTSKNHFSLKLKSLTAADTAVYFCATGGLSAFGELFPHDKWGQGTLVTVSS VL: EIVLTQSPATLSLSPGERATLSCRASQSVGSDLAWYQQKPGQAPRLLIYDTSNRATGIPARFSGSGSGTDFTLTISSLDPADFAVYYCQQRTNWLFSFGPGTKVDIK | 1.39
C891 (antibody, V domains shown) VH: EVQLVESGGGLVKPGGSLRLSCAVSGFTFSNVWMSWVRQAPGKGLEWVGRIKSKTDGGTTDYAAPVKGRFTISRDDSKNTLYLQMNSLKTEDTAVYYCTSQLWLRGPGDYWGQGTLVTVSS VL: NFMLTQPHSVSESPGKTVTISCTGSSGSIASNYVQWYQQRPGSAPTTVIYEDNQRPSGVPDRFSGSIDSSSNSASLTISGLKTEDEADYYCQSYDSSLNWVFGGGTKLTVL | 1.44
C902 (antibody, V domains shown) VH: EVQLVQSGAEVKKPGESLRISCKGSGYSFHTYWIHWVRQMPGKGLEWMGKIDPSDSYTNYSPSFQGHVTFSADRSISTAYLQWSSLKASDTATYYCARLSWSPPTRTTDEKNWFDPWGQGTLVTVSS VL: DIQLTQSPSFLAASAGDRVTITCRASQGISSYLAWYQQKPGKAPKVLIYAASTLQSGVPSRFSGSGSGTEFTLTISSLQPEDCATYYCQQFNSDPLTFGGGTKVEIK | 3.4
C843 (antibody, V domains shown) VH: QVQLVESGGGVVQPGRSLRLSCAASGFTFSRYAMHWVRQAPGKGLEWVAVISYDGSNKYYATSLKGRCTISRDNSKNTLYLQMNSLRAEDTAVYFCAKQIGEYCSGGNCYQGSLDYWGQGTLVTVSS VL: DIQMTQSPSSLSASVGDRVTITCQASQDISNYLNWYQQKPGKAPKLLIYDASDLETGVPSTFSGSGSGTDFTLTISSLQPEDFATYYCQQYDIVPFTFGPGTKVDIK | 1.34
C901 (antibody, V domains shown) VH: QVQLVESGGGVVQPGRSLRIACGASGFTFSTYDMHWVRQAPVKGLEWVAVISRDGSGKFYADSVKGRFTISRDNSKKTLYLQMDSLRPEDTAMYYCARDFESRTWDPPKYYYALDVWGQGTTVTVSS VL: DIQMTQSPSSLSASVGDRVTITCRASQSISTYLNWYQQKPGKAPSLLIYAASSLYSGVPSRFSGSGSGTDFSLTISSLQPEDFATYYCQQTYTTPTWTFGQGTKVEIK | 2.16
C881 (antibody, V domains shown) VH: EVQLVESGGGLIQPGGSLRLSCAVSGVAVSTNYMSWVRQAPGQGLEWVSTIYSGDTTYYSDSVKGRFTISRDNSKNTFYLQMNSLRVPDTAVYYCARLGGVFNGFNGSFDYWGQGTLVTVS VL: QSALTQPASVSGSPGQSITISCIGTSSDFENYNLVSWYQQHPGKAPKVMIYEDTKRPSGVSNRFSGSKSANTASLTISGLQAEDEAEYYCCSYAGASTWVFGGGTRVTVV | 1.44
